According to the supplement of paper PMC9170038:

System: MS2 coat protein
Assay: apparent KD of MS2 coat protein; designed switch direction (-1 OFF switch, 1 ON switch): 1; higher = weaker reporter binding
How it was run: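 SNAP-549-labelled MS2 coat protein was titrated, doubling from 0.7 or 1.5 nM to 3 µM, over designed RNA switches transcribed on Illumina chips by stalled E. coli RNA polymerase. Runs were done without input, with 200 uM small-molecule ligand, or with an oligonucleotide input. Apparent KD is the per-design median over clusters of curve-fitted normalised fluorescence.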

[1] = input ligand: microRNA oligo, concentration not stated
[2] = Eterna round: R95, input ligand: microRNA oligo, concentration not stated
[3] = Eterna round: R95, input ligand: FMN 200 uM
[4] = Eterna round: R95, input ligand: none

“GCUCGUAUCACGACCGACAUGAGGAUCACCCAUGUAUGUUGGUAGGAUAUCUAUAUUAAGGAUAUAGAGAAGGGCCGAACGAGC [SameState NG3 #14] (Eterna round: R96, puzzle: Same State NG 3)” was tested, and the “apparent KD of MS2 coat protein” value (input ligand: FMN 200 uM) was 23.5 nM, the “apparent KD of MS2 coat protein” value [1] was 24.8 nM and the “apparent KD of MS2 coat protein” value (input ligand: none) was 30.1 nM.
With “ACUCUCACAGUAGGAUAUGUAGGAUAUGCCUACAUGAGGAUCACCCAUGUAAACAUGGCAGAAGGAUAGAAGGACUUACAUUGG [pwkr ssNG2 2FMN + 1F5.1] (Eterna round: R96, puzzle: Same State NG 2)” the “apparent KD of MS2 coat protein” value (input ligand: FMN 200 uM) was 495 nM, the “apparent KD of MS2 coat protein” value [1] was 577 nM and the “apparent KD of MS2 coat protein” value (input ligand: none) was 762 nM.
For “AAAAAACAUGAGGAUCACCCAUGUAAAAAAAUGGGAGGAUAUCUGAAUUAAUUAAAUUAAGGAGAAGGCCUAAAAA [71%, Same state of confusion2, 4] (Eterna round: R96, puzzle: Same State 1)”, the “apparent KD of MS2 coat protein” value [1] was 192 nM.
“AAGAAACAUGAGGAUCACCCAUGUAAGAUAAACACAGGAUAUGCGAAUAAAAUAAAUAAAGCAGAAGGGUGAAGAA [Mat - Same State 1 - Tesla mod - D150] (Eterna round: R96, puzzle: Same State 1)” was tested, and the “apparent KD of MS2 coat protein” value [1] was 38.9 nM.
In the case of “AGCUAUUACGAAGGAUAUUCUGACAUGAGGAUCACCCAUGUCUUCAUGAUUUAUUGUGAUCACGUGGAGAAGGUUGUACUAACA [SameState NG2 #27] (Eterna round: R96, puzzle: Same State NG 2)”, the “apparent KD of MS2 coat protein” value (input ligand: FMN 200 uM) was 90.4 nM, the “apparent KD of MS2 coat protein” value [1] was 77.9 nM and the “apparent KD of MS2 coat protein” value (input ligand: none) was 91.4 nM.
For “CCGAUUUAUGGAGGAUAUGGAGCCUUAUUGGCUCCAGAAGGUCAAUAAACAUGAGGAUCACCCAUGUCGGCGGUCAAUAGACCG [Eli NG1ss - 71] (Eterna round: R96, puzzle: Same State NG 1)”, the “apparent KD of MS2 coat protein” value (input ligand: FMN 200 uM) was 103 nM, the “apparent KD of MS2 coat protein” value [1] was 84.4 nM and the “apparent KD of MS2 coat protein” value (input ligand: none) was 180 nM.
With “UGUUUGUUGUGAGGAUAUACGUACACCUUACAUGAGGAUCACCCAUGUUGUUUCUUUGAUUGUUGGUAGAAGGCACUUGGUUAU [JR_SSNG2_Sub048] (Eterna round: R96, puzzle: Same State NG 2)” the “apparent KD of MS2 coat protein” value (input ligand: FMN 200 uM) was 324 nM, the “apparent KD of MS2 coat protein” value [1] was 123 nM and the “apparent KD of MS2 coat protein” value (input ligand: none) was 208 nM.
In the case of “UAAGGACAUGAGGAUCACCCAUGUGCUUCAUAUGGAGAAUCUCAGGAUAUGCUGAGGAUCACCCAGCAGAAGGGAGAUCCGAGG (Eterna round: R96, puzzle: Same State NG 3)”, the “apparent KD of MS2 coat protein” value (input ligand: FMN 200 uM) was 71.9 nM, the “apparent KD of MS2 coat protein” value [1] was 93 nM and the “apparent KD of MS2 coat protein” value (input ligand: none) was 120 nM.
“AAUUAAUUAAUUAAUAUACAUGAGGAUCACCCAUGUAAGAUCAAGGAUAUCAGCUCGAAUAGAGCUGAGAAGGUGAUCACAUGU [SSNG3/16-A1] (Eterna round: R96, puzzle: Same State NG 3)” was tested, and the “apparent KD of MS2 coat protein” value [1] was 251 nM.
In the case of “GCCAUCGCAUGAGGAUAUGGCACCGUUUCGGUGCCAGAAGGCAUGUCAAAUGACAUGAGGAUCACCCAUGUAGUUAAGAUGGCA [JL Fiskers NG1ss - 33 mod 9] (Eterna round: R96, puzzle: Same State NG 1)”, the “apparent KD of MS2 coat protein” value (input ligand: FMN 200 uM) was 29.2 nM, the “apparent KD of MS2 coat protein” value [1] was 417 nM and the “apparent KD of MS2 coat protein” value (input ligand: none) was 542 nM.
“UAGUGCGUUAGAGGAUAUUCUAAAAAAAAAAAAAAGACAUGAGGAUCACCCAUGUAUGUACAUGGGAAGAAGGCUGAUGUGCUA [Omei SS(NG)2 B] (Eterna round: R96, puzzle: Same State NG 2)” was tested, and the “apparent KD of MS2 coat protein” value (input ligand: FMN 200 uM) was 75.9 nM, the “apparent KD of MS2 coat protein” value [1] was 352 nM and the “apparent KD of MS2 coat protein” value (input ligand: none) was 551 nM.
For “CGUCGCUGUCGAGAGGAUAUGCGGUGGUGGACAUGAGGAUCACCCAUGUUAGCGAUAGCAUCACGGUAGAAGGCUCUUACGACUG [Soteed Omei mod 25] (puzzle: Same State 2)”, the “apparent KD of MS2 coat protein” value [2] was 18.1 nM.
For “CUGAGCGAUCUAGGAUAUCACGUCGUUUAGACGUGAGAAGGAGAUCAUAACAUGAGGAUCACCCAUGUAUUACAUGAAGCUCAG [SSNG1/6-A3] (Eterna round: R96, puzzle: Same State NG 1)”, the “apparent KD of MS2 coat protein” value (input ligand: FMN 200 uM) was 14.9 nM, the “apparent KD of MS2 coat protein” value [1] was 16.9 nM and the “apparent KD of MS2 coat protein” value (input ligand: none) was 19.1 nM.
“UGGUACAUGGGAGGAUAUCUCAUGGAGACAUGAGGAUCACCCAUGUAGUUGGACCGGAAACGGUGAGAGAAGGCCCAUGUACCU [JL SSNG1 3.72] (Eterna round: R96, puzzle: Same State NG 2)” was tested, and the “apparent KD of MS2 coat protein” value (input ligand: FMN 200 uM) was 30.2 nM, the “apparent KD of MS2 coat protein” value [1] was 52.8 nM and the “apparent KD of MS2 coat protein” value (input ligand: none) was 59.6 nM.
In the case of “AGCUAGUACCGAGGAUAUACAUACAUGAGGAUCACCCAUGUAUACAUGAAUUAAUGAGACUACAUGUAGAAGGCGGUACUAGCA [JL SSNG2 1.22] (Eterna round: R96, puzzle: Same State NG 2)”, the “apparent KD of MS2 coat protein” value [1] was 54 nM.
With “GUAGCAUACCGAGGAUAUUCAUAAACAUGAGGAUCACCCAUGUAGGCCAGCAUUAGCUGGCCUUGGGAGAAGGCGGAAUGCUAC [Xeonanis - 20 Mod51] (Eterna round: R96, puzzle: Same State NG 2)” the “apparent KD of MS2 coat protein” value (input ligand: FMN 200 uM) was 17.4 nM, the “apparent KD of MS2 coat protein” value [1] was 53.9 nM and the “apparent KD of MS2 coat protein” value (input ligand: none) was 77.4 nM.
With “CGAUCAUACUCAGGACGGAGAGUAGAGGAACAUGAGGAUCACCCAUGUAUGAGCUUUUUGCUCGUCAUGAACAGGAG [JR_SHM208a_Sub010] (puzzle: Sensor for hsa-mir-208a)” the “apparent KD of MS2 coat protein” value [3] was 67.2 nM, the “apparent KD of MS2 coat protein” value [2] was 59.7 nM and the “apparent KD of MS2 coat protein” value [4] was 121 nM.
In the case of “UUUAGUUGCGGGCAGGAUAUGUAUUAAAAUACAUGAGGAUCACCCAUGUGAGAUCGAAAAGAUCUACAGAAGGGCCAAUCGCGAC [Laonerce - 24] (puzzle: Same State 2)”, the “apparent KD of MS2 coat protein” value [3] was 14 nM, the “apparent KD of MS2 coat protein” value [2] was 58.3 nM and the “apparent KD of MS2 coat protein” value [4] was 85.8 nM.
In the case of “GUAGCAUACCGAGGAUAUUCAUAUUACAUGAGGAUCACCCAUGUGGCCAGCAUUAGCUGGCCUUGGGAGAAGGCGGAAUGCUAC [Xeonanis - 20 Mod49] (Eterna round: R96, puzzle: Same State NG 2)”, the “apparent KD of MS2 coat protein” value (input ligand: FMN 200 uM) was 110 nM, the “apparent KD of MS2 coat protein” value [1] was 623 nM and the “apparent KD of MS2 coat protein” value (input ligand: none) was 1150 nM.
With “UAUUUAAUCAUAGGAUAUAGUGUGAAAUUUGGACUAGAAGGAUGUAACAUGAGGAUCACCCAUGUGGUAAGUGGGAUACAUUCC [JR_SSNG1_Sub098] (Eterna round: R96, puzzle: Same State NG 1)” the “apparent KD of MS2 coat protein” value (input ligand: FMN 200 uM) was 110 nM, the “apparent KD of MS2 coat protein” value [1] was 75 nM and the “apparent KD of MS2 coat protein” value (input ligand: none) was 117 nM.
“UGCCUGAGUCGAGGAUAUUAUGGAUCCUUUAAUACAUGAGGAUCACCCAUGUAAUUAAUUAUACAUGAGAAGGCGACUCAGGCA [SSNG2/11-A2] (Eterna round: R96, puzzle: Same State NG 2)” was tested, and the “apparent KD of MS2 coat protein” value (input ligand: FMN 200 uM) was 17.4 nM, the “apparent KD of MS2 coat protein” value [1] was 97 nM and the “apparent KD of MS2 coat protein” value (input ligand: none) was 90.1 nM.
For “GCCAUCGUAUGAGGAUAUGGCACCGUUUCGGUGCCAGAAGGCAUGUCAAUUGACAUGAGGAUCACCCAUGUAUUUUCGAUGGCA [JL Fiskers NG1ss - 33 mod 11] (Eterna round: R96, puzzle: Same State NG 1)”, the “apparent KD of MS2 coat protein” value (input ligand: FMN 200 uM) was 74.6 nM, the “apparent KD of MS2 coat protein” value [1] was 385 nM and the “apparent KD of MS2 coat protein” value (input ligand: none) was 779 nM.
“GAGCUCGUGUGAGGAUAUGCCGCCGUUUCGGCUGCAGAAGGUGCUACGUUACAUGAGGAUCACCCAUGUCUCUGUUGUUUCGUG [salish99_SSNG1_r04_958] (Eterna round: R96, puzzle: Same State NG 1)” was tested, and the “apparent KD of MS2 coat protein” value (input ligand: FMN 200 uM) was 23.5 nM, the “apparent KD of MS2 coat protein” value [1] was 20.4 nM and the “apparent KD of MS2 coat protein” value (input ligand: none) was 21.9 nM.
